The results in this text go back to publication PMC4331662.

This experiment concerns the target D. melanogaster cellular repressor of E1A-stimulated genes (dCREG), residues 24-212, produced in E. coli from pFO4/dCREG (D. melanogaster). In words: SEC; Superdex 75 HR 10/30, 50 mM sodium phosphate buffer pH 7.0, 150 mM NaCl, flow 0.5 ml/min, absorbance at 280 nm. For orientation: In gel filtration, larger molecules generally elute earlier.

Take “D. melanogaster cellular repressor of E1A-stimulated genes (dCREG), residues 24-212, produced in E. coli from pFO4/dCREG (natural protein)”: the stoichiometry N (in general, a count of units in the complex or per binding partner) came out at 2.
